# According to article PMC10229537, “A cryo-EM structure of KTF1-bound polymerase V transcription elongation complex” (Nature Communications, 2023):
# T1: NRP(D/E)2 (Arabidopsis thaliana (endogenous in T87 …, UniProt Q9LK40 1-1172))
# T1 construct: NRP(D/E)2, second largest subunit shared by Pol IV and Pol V, Arabidopsis thaliana; also called NRP(D/E)2 subunit; source: endogenous, A. thaliana T87 cells, co-purified with 3xFLAG-10xHis-NRPE1
# T1 sequence (looked up): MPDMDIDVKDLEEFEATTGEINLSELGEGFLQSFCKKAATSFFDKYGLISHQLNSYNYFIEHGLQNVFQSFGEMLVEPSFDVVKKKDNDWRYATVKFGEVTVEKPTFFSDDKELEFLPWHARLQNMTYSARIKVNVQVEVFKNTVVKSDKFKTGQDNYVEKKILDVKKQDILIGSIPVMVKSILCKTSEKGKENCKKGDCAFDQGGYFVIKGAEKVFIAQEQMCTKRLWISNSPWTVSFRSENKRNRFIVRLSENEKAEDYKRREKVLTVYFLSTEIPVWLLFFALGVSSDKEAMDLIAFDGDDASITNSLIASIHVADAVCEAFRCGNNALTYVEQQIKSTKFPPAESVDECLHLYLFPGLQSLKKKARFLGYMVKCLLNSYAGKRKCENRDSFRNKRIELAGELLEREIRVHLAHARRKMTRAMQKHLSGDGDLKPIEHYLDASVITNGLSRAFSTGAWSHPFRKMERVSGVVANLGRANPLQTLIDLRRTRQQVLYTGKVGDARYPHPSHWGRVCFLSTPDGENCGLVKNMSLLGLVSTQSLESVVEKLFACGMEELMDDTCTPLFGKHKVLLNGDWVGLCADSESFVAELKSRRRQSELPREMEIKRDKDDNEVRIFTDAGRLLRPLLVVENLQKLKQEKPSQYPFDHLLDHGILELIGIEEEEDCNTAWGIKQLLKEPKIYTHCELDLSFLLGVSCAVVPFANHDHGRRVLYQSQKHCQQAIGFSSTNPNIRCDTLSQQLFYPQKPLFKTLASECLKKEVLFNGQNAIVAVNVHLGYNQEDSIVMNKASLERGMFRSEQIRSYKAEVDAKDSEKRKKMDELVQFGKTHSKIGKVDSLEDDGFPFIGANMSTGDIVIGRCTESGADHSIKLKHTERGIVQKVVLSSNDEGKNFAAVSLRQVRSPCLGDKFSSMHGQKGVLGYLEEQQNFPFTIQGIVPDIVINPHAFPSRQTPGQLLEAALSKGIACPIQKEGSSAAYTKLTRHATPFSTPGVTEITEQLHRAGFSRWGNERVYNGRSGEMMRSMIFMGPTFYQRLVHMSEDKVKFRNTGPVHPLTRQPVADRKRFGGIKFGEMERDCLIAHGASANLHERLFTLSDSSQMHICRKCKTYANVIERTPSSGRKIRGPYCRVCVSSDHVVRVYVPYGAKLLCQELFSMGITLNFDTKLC
# B1: KOW domain-containing transcription factor 1 (KTF1), residues 1-712, the conserved N-terminal domain (domain or fragment, Arabidopsis thaliana, UniProt F4JW79 1-712, looked up)
# chain: MDRKGKGKQVAGSDSYSGGQKRKNSVEFRDEGLRIKKRKNPEVLQFFEESAEVGYYGGSSDEDDDGLGFLNDMEDEPEVEESSKAGKGEKGKSSFVFPKEEDLNEEEFDRIMEERYKPGSGFLRYADDDIKDAIEMDALAPTSKDPPIWKVKCAIGRERRSVFCLMHKFVELRKIGTKLEIISVFSVDHVKGFIFIEADKEHDVLEACKSLVGIYATRMVLLPKAETPNLLTVQKKTKKVSEGTWARVKNGKYKGDLAQIVAVSDTRNKALIKLIPRIDIQALTQKYGGGVTVQKGQTPAPRLISSSELEEFRPLIQVRRDRDTGITFEHLDSLMLKDGYLYKKVSLDSISSWGVIPTKDELLKFTPVDRKETGDVEWISEIYGEERKKKILPTCREGGKGEGSGGGKGEGSGGGKGEGSRGGKGEGSSDFKSESSYELYNLVCFSRKDFGLIVGVDDKGDGYKVLKEGIDGPVVVTVGKKEMQNGPFDSKFTALDLNKKQISVNDVVKISKGPSEGKQGVVRQVYRGIIFLYDESEEENGGYFCCKSQSCEKVKLFTEESNEKTGGFDGTAFEDFVSSPKSPLSPEKEWQPRERYNSSNQGDIGSTYSIGQKLRIRVGPLKGYLCRVIALRYSDVTVKLDSQHKIFTVKSEHLAEVRDRNTVLSTSGDAGTGSFQPFGMLGTESSTGDWAIGAGTSSEGGNWNIGGPSTDS
# notes: KTF1 (SPT5L), Arabidopsis thaliana, At5g04290, residues 1-712 (NGN, KOW1, KOW4, KOW5; without the C-terminal GW/WG repeats); The modified pETDuet1 vector carries a 6xHis-tagged SUMOstar that was cleaved on the column; Added to Pol V as the heterodimer with SPT4; Only the KOW5 domain is seen in the map; also called SPT5L; truncated KTF1 (1-712)
# B2: NRP(A/B/C/D/E)12 (natural protein)
# chain: not shown
# notes: NRP(A/B/C/D/E)12, subunit 12 shared by Pol I-V, Arabidopsis thaliana; source: endogenous, A. thaliana T87 cells, co-purified with 3xFLAG-10xHis-NRPE1
# B3: NRP(B/D/E)3 (natural protein, UniProt Q39211 1-319, looked up)
# chain: MDGATYQRFPKIKIRELKDDYAKFELRETDVSMANALRRVMISEVPTVAIDLVEIEVNSSVLNDEFIAHRLGLIPLTSERAMSMRFSRDCDACDGDGQCEFCSVEFRLSSKCVTDQTLDVTSRDLYSADPTVTPVDFTIDSSVSDSSEHKGIIIVKLRRGQELKLRAIARKGIGKDHAKWSPAATVTFMYEPDIIINEDMMDTLSDEEKIDLIESSPTKVFGMDPVTRQVVVVDPEAYTYDEEVIKKAEAMGKPGLIEISPKDDSFIFTVESTGAVKASQLVLNAIDLLKQKLDAVRLSDDTVEADDQFGELGAHMRGG
# notes: NRP(B/D/E)3, subunit 3 shared by Pol II, IV and V, Arabidopsis thaliana; also called NRPE(B/D/E)3; source: endogenous, A. thaliana T87 cells, co-purified with 3xFLAG-10xHis-NRPE1
# Columns and labels:
# NRP(D/E)2 = target: T1, NRP(D/E)2; experiment: cryo-EM structure; Pol V, nucleic-acid scaffold and KTF1/SPT4 heterodimer mixed 1:1.2:3 in 20 mM HEPES pH 7.5, 100 mM NaCl, 5 mM MgCl2, 1 mM DTT; complex taken from Superose 6 Increase; maps at 3.2 Å and 4.3 Å, local maps at 3.0 Å and 3.7 Å; settings: both partners purified
# [1] = target: B1; experiment: as above; settings: both partners purified
Binder,binding result (NRP(D/E)2),binding result [1]
B1,binds,
B2,,binds
B3,,binds
